What was measured:
[1] = molecular target: RfDoc1b, group 1b dockerin, thioredoxin A fusion, wild type (R. flavefaciens FD-1); experiment: ITC; 308 K; dockerin in the cell (stirred at 307 revolutions/min) titrated with 28 injections of 10 uL cohesin at 220 s intervals; proteins in 50 mM HEPES pH 7.5, 0.5 mM CaCl2, 0.5 mM TCEP; single-site model
[2] = molecular target: RfDoc1a, group 1a dockerin, thioredoxin A fusion, wild type (R. flavefaciens FD-1); experiment: as above

Ka [1]	dH [1]	stoichiometry N [1]	Ka [2]	dH [2]	stoichiometry N [2]	Substance
2.67e+07 M⁻¹	-61.2 kcal/mol	1	5.03e+08 M⁻¹	-38.9 kcal/mol	1	RfCohScaA, ScaA cohesin with C-terminal hexa-histidine tag (domain or fragment)
			1.65e+06 M⁻¹	-66.9 kcal/mol	1	RfCohScaB3 E84A + H121A, C-terminal hexa-histidine tag (domain or fragment)
			1.53e+07 M⁻¹	-55 kcal/mol	1	RfCohScaB3 E84A + N124A, C-terminal hexa-histidine tag (domain or fragment)
			3.62e+07 M⁻¹	-55.5 kcal/mol	1	RfCohScaB3 E84A, C-terminal hexa-histidine tag (domain or fragment)
			2.28e+06 M⁻¹	-46.4 kcal/mol	1	RfCohScaB3 H121A + N124A, C-terminal hexa-histidine tag (domain or fragment)
			2.66e+07 M⁻¹	-52.6 kcal/mol	1	RfCohScaB3 H121A, C-terminal hexa-histidine tag (domain or fragment)
			4.23e+08 M⁻¹	-57.4 kcal/mol	1	RfCohScaB3 K77A, C-terminal hexa-histidine tag (domain or fragment)
			7.59e+06 M⁻¹	-51.9 kcal/mol	1	RfCohScaB3 L79A, C-terminal hexa-histidine tag (domain or fragment)
			1.1e+08 M⁻¹	-58.6 kcal/mol	1	RfCohScaB3 N68A, C-terminal hexa-histidine tag (domain or fragment)
			2.08e+07 M⁻¹	-51.8 kcal/mol	1	RfCohScaB3 N75A + E84A, C-terminal hexa-histidine tag (domain or fragment)
			2.49e+06 M⁻¹	-50.8 kcal/mol	1	RfCohScaB3 N75A + H121A, C-terminal hexa-histidine tag (domain or fragment)
			1.86e+06 M⁻¹	-56.3 kcal/mol	1	RfCohScaB3 N75A + N124A, C-terminal hexa-histidine tag (domain or fragment)
			9.09e+07 M⁻¹	-52.7 kcal/mol	1	RfCohScaB3 N75A, C-terminal hexa-histidine tag (domain or fragment)
			5.54e+07 M⁻¹	-52.8 kcal/mol	1	RfCohScaB3 N124A, C-terminal hexa-histidine tag (domain or fragment)

Reference: PMC5429695
